We go through 1 substance from patent US20060140929.

Data set [1] relates to T1, hirudin mutein M 2 (I29R L30H).
T1 sequence: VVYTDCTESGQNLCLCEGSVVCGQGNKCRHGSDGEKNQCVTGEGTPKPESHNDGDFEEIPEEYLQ

The test system of data set [2] is T2, hirudin mutein M 1 (I29A L30A).
T2 sequence: T1 sequence with R29A, H30A

Numbering of substitutions follows the chain as printed.

For thrombin, the Relative activity (ED50 variant/ED50 WT hirudin), chromogenic thrombin cleavage assay in data set [1] worked out at 1.2; in data set [2], 1.4.
